According to patent US20040071702A1 (Genmab, published 2004):

Target: T1, IL-15Rα constitutively expressed on Raji cells (UniProt Q13261 31-267, limits assumed)
T1 construct: whole, on cells; also called IL-15R-expressing Raji cells
Assay: flow cytometry, IL-15Rα-expressing Raji cells without IL-15, biotinylated 146B7, streptavidin-PE; stimulation index
Experimental: Raji cells are pre-incubated (20 minutes at 4° C.) with 10% human pooled AB serum (CLB, Amsterdam, Netherlands)in FACS buffer (PBS, 0.05%BSA, 0.02% NaNO₃). Raji cells (1-2*10⁵ cells/ml) were put in the wells, and 50 μl of unlabeled IL-15 was added in several concentrations (diluted in FACS buffer with 10% human AB serum). […] After washing twice in FACS buffer, 50 μl of streptavidin-phycoerythrin was added to each well (30 minutes at 4° C.). After washing twice in FACS buffer, cells were taken up in 200 μl of FACS buffer, and fluorescence intensity of at least 5000 cells per sample was determined after analysis by flow cytometry (FACS Calibur, Becton Dickinson) using CellQuest software.

T1 sequence (Q13261 31-267 limits assumed): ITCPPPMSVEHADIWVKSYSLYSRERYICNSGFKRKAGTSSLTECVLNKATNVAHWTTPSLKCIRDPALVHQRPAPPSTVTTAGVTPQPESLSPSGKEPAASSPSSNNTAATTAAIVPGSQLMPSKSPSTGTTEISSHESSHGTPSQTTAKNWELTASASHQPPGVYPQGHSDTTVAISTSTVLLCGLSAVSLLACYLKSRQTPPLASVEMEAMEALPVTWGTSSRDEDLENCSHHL

B1: human anti-IL-15 antibody 146B7 (antibody, human IgG1, V domains shown)
VH: EVQLVQSGAEVKKPGESLKISCKVSGYFFTTYWIGWVRQMPGKGLEYMGIIYPGDSDTRYSPSFQGQVTISADKSISTAYLQWSSLKASDTAMYYCARGGNWNCFDYWGQGTLVTVSS
VL: EIVLTQSPGTLSLSPGERATLSCRASQSVSSSYLAWYQQKPGQAPRLLIYGASRRATGIPDRFSGSGSGTDFTLTISRLEPEDFAVYYCQRYGSSHTFGQGTKLEISR
notes: also called MDX015
B1: no binding (tested: 10000 (unit not printed on the sheet)).
